According to patent US20090036364A1:
Square brackets hold non-standard residues; d marks the D form. Ends that are not written are not given here.

T1: GLP-1 receptor, P32301
T1 chain: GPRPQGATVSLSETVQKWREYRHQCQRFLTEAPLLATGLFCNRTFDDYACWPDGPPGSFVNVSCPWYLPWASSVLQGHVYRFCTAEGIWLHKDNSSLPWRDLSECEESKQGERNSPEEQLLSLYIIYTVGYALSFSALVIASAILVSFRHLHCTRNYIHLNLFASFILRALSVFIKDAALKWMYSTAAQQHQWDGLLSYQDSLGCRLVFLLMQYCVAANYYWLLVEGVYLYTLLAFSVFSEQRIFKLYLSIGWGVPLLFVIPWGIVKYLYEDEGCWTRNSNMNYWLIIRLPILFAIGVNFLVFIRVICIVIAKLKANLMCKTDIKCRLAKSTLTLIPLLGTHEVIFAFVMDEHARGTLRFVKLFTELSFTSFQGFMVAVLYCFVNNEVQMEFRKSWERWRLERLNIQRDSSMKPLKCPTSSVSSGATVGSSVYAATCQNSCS

T2: GIP receptor
T2 sequence (P48546 whole entry, species assumed, looked up): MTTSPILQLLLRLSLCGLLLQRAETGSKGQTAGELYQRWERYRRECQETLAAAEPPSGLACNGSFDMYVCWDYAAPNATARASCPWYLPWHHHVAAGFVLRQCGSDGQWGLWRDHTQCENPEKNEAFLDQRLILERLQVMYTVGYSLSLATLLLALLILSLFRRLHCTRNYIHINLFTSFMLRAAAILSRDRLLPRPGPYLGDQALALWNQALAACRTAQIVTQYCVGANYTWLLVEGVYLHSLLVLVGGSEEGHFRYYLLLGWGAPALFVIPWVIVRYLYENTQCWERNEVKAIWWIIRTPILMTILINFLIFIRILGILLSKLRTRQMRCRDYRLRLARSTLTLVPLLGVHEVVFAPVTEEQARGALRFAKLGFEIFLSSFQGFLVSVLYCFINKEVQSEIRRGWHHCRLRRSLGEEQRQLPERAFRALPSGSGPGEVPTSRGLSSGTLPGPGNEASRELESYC


Key:
GLP-1 receptor, P32301 = target: T1, GLP-1 receptor, P32301; test: GLP-1 receptor binding, displacement of [125I]GLP-1 on RINm5F cell membranes
GIP receptor = target: T2, GIP receptor; test: GIP receptor binding assay

Row | Binder | GLP RBA (GLP-1 receptor, P32301) | GIP RBA (GIP receptor)
1 | YAEGTFISDYSIAMDKIHQQDFVNWLLAQKPSSGAPPPS (modifications not checked) [0601GIP3794, (D-Ala2)GIP(1-30)-… amide form] | 1000 | 
2 | Y[dA]EGTFISDYSIAMDKIHQQDFVNWLLAQKPKKIRYS [0601GIP4233, [dAla2] GIP-(1-30)-fGLP-1v2-(31-37)] |  | 0.1 nM
